{"source": "patent US20240075137A1", "about": "(COMPUGEN, published 2024)", "binders": {"B1": {"name": "CPA.9.059 hIgG4 (antibody, V domains shown)", "VH": "EVQLVETGGGLIQPGGSLRLSCAASGFTVSSNYMSWVRQAPGKGLEWVSVIYSGGSTYYADSVKGRFTISRDNSKNTLYLQMNSLRAEDTAVYYCARGARYSYGQYPYWGQGTLVTVSS", "VL": "DIQLTQSPSFLSASVGDRVTITCRASHDISSLFSWYQQKPGKAPKLLIYAASTLQTGVPSRFSGSASGTEFTLTISSLQPEDFATYYCLQLDSFPTWTFGQGTKVEIKR", "notes": "phage-derived anti-TIGIT, human IgG4; also called CPA.9.059-H4"}, "B2": {"name": "human TIGIT on cells (receptor)", "chain": "MMTGTIETTGNISAEKGGSIILQCHLSSTTAQVTQVNWEQQDQLLAICNADLGWHISPSFKDRVAPGPGLGLTLQSLTVNDTGEYFCIYHTYPDGTYTGRIFLEVLESSVAEHGARFQIP", "notes": "also called Expi293 human TIGIT over-expressing cells"}, "B3": {"name": "CHA.9.543 (antibody, V domains shown)", "VH": "EVQLQQSGPELVKPGASMKISCKASGYSFTGYTMNWVRQSHGKNLEWLGLIFPYNGGTSYNQNFKGKATLTVDTSSSTAYMELLSLTSVDSAVYYCARGVRFALDYWGQGTSVSVSS", "VL": "DVVMTQTPLSLPVSFGDQVSISCRSSQSLANSYGNTYLSWYLHKPGQSPQLLIYEISNRFSGVPDRFSGSGSGTDFTLNISTIKPEDLGMYYCLQGTHQPWTFGGGTKLEIKR"}, "B4": {"name": "CPA.9.086.H4(S241P) (antibody, human IgG4 S228P, lambda, V domains shown)", "VH": "EVQLVETGGGLIQPGRSLRLSCAASGFTFSSYAMHWVRQAPGKGLEWVAVISYAGEVKYYADSVKGRFTISRDNSKNTLYLQMNSLRAEDTAVYYCARDPLPLHYYGMDVWGQGTTVTVSS", "VL": "QSALTQPRSASGNPGQRVTISCSGSSSNMGRRPVNWYQQIPGTAPKLLIYSQNQRPSGVPDRFSGSQSGTSASLTISGLQSEDEAEYFCAVWDDIGRVLQLGGGTQLAVLG"}, "B5": {"name": "CPA.9.083 reformatted as mouse IgG1 (antibody, V domains shown)", "VH": "B4 VH with A54D, E56T, V57P, K58V", "VL": "B4 VL with D94G, I95D, G96R, V98S", "notes": "also called CPA.9.083 mIgG1"}, "B6": {"name": "CPA.9.086 reformatted as mouse IgG1 (antibody, V domains shown)", "VH": "B4 VH", "VL": "B4 VL", "notes": "also called CPA.9.086 mIgG1"}}, "key": {"[1]": {"biological_target": "T1, human TIGIT ECD with C-terminal polyhistidine tag (human, UniProt Q495A1 22-141)", "T1 construct": "in-house or Sino Biological; also called hTIGIT-HIS; human TIGIT-HIS", "T1 sequence": "B2 chain", "assay": "SPR (ProteOn), mAb captured, human TIGIT injected"}, "Cyno TIGIT-His [2]": {"biological_target": "T2, Cyno TIGIT-His", "T2 construct": "also called cyno TIGIT monomer (prepared in-house); C-terminal HIS-tagged cyno TIGIT ECD recombinant protein", "T2 sequence (ECD with C-terminal His tag, as listed by the source)": "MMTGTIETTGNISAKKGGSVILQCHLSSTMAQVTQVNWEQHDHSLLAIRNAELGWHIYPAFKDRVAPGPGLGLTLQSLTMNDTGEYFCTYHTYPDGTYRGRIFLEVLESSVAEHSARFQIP", "assay": "SPR (ProteOn), mAb captured, cyno TIGIT monomer injected"}, "human TIGIT on cells [3]": {"biological_target": "B2", "assay": "FACS KD on Expi293 human TIGIT over-expressing cells; ± 95% CI of the fit"}, "human TIGIT on cells [4]": {"biological_target": "B2", "assay": "FACS blocking: Expi293 human TIGIT cells pre-incubated with mAb, then human PVR-m2aFc; lower gMFI = more blocking"}, "[5]": {"biological_target": "T3, human PVR-h1Fc (Sino Biological #10109-H20H) (human, UniProt P15151 21-343)", "T3 construct": "bought; also called hPVR-hFc; Sino PVR-Fc", "T3 sequence (looked up)": "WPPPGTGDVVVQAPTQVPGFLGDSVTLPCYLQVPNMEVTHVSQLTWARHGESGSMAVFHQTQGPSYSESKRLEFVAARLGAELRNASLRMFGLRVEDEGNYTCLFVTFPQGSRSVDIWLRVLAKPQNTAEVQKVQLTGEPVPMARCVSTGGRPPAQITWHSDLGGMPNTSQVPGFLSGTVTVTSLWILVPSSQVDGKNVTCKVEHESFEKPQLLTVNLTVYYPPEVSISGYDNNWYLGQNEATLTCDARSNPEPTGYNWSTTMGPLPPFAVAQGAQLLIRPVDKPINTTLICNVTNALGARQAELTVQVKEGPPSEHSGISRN", "assay": "FACS titration on Expi293 human TIGIT over-expressing cells (gMFI OE:Parental); ± 95% CI; 'Fit: Fair'"}, "Cyno TIGIT-His [6]": {"biological_target": "T2, Cyno TIGIT-His", "assay": "SPR (ProteOn), mAb captured, cyno TIGIT monomer injected; kd of this row held constant"}, "cyno TIGIT on cells [7]": {"biological_target": "T4, cyno TIGIT on cells (cynomolgus macaque)", "T4 construct": "whole, on cells; also called Expi293 cyno TIGIT over-expressing cells", "assay": "FACS KD on Expi293 cyno TIGIT over-expressing cells; ± 95% CI of the fit"}, "[8]": {"biological_target": "T1, human TIGIT ECD with C-terminal …", "assay": "SPR (ProteOn), Human TIGIT-His"}, "cyno TIGIT on cells [9]": {"biological_target": "T4, cyno TIGIT on cells", "assay": "FACS titration on cyno TIGIT OE Expi293 cells, binding site concentration; ± 95% CI; 'Fit: Good'"}, "cyno TIGIT on cells [10]": {"biological_target": "T4, cyno TIGIT on cells", "assay": "FACS titration of AF647-labelled mAb on cyno effector memory CD8+ T cells, Cyno Donor 3; isotype gMFI subtracted"}, "human TIGIT on cells [11]": {"biological_target": "B2", "assay": "FACS titration on human TIGIT OE Expi293 cells, binding site concentration; ± 95% CI; 'Fit: Good/Excellent'"}, "Mouse TIGIT-His": {"biological_target": "T5, Mouse TIGIT-His (mouse, UniProt P86176)", "T5 construct": "also called mouse TIGIT monomer (prepared in-house)", "T5 sequence (soluble monomer with His tag, looked up)": "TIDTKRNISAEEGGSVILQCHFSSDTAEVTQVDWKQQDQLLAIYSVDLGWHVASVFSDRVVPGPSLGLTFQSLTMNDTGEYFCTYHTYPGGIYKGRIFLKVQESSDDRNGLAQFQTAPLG", "assay": "SPR (ProteOn), Mouse TIGIT-His"}, "human TIGIT on cells [12]": {"biological_target": "B2", "assay": "FACS titration of AF647-labelled mAb on human effector memory CD8+ T cells, Donor 322"}, "human TIGIT on cells [13]": {"biological_target": "B2", "assay": "FACS titration of AF647-labelled mAb on human effector memory CD8+ T cells, Donor 334"}, "human TIGIT on cells [14]": {"biological_target": "B2", "assay": "FACS blocking of human PVR-m2aFc binding to human TIGIT OE Expi293 cells; binding site concentration; n=2"}, "Cyno TIGIT-His [15]": {"biological_target": "T2, Cyno TIGIT-His", "assay": "SPR (ProteOn), Cyno TIGIT-His"}, "[16]": {"biological_target": "T1, human TIGIT ECD with C-terminal …", "assay": "KinExA equilibrium, His-tagged human TIGIT, n = 1"}, "human TIGIT on cells [17]": {"biological_target": "B2", "assay": "FACS titration of AF647-labelled mAb on human effector memory CD8+ T cells, Donor 321"}, "cyno TIGIT on cells [18]": {"biological_target": "T4, cyno TIGIT on cells", "assay": "FACS titration of AF647-labelled mAb on cyno effector memory CD8+ T cells, Cyno Donor 1; isotype gMFI subtracted"}, "human TIGIT on cells [19]": {"biological_target": "B2", "assay": "FACS blocking of human PVR-m2aFc binding to human TIGIT OE Expi293 cells; binding site concentration; n=1"}, "[20]": {"biological_target": "T1, human TIGIT ECD with C-terminal …", "assay": "KinExA equilibrium, His-tagged human TIGIT, n = 2"}, "mouse TIGIT on cells": {"biological_target": "T6, mouse TIGIT on cells (mouse, UniProt P86176 29-249)", "T6 construct": "whole, on cells; also called mouse TIGIT over-expressing HEK cells; mouse Tregs", "T6 sequence (looked up)": "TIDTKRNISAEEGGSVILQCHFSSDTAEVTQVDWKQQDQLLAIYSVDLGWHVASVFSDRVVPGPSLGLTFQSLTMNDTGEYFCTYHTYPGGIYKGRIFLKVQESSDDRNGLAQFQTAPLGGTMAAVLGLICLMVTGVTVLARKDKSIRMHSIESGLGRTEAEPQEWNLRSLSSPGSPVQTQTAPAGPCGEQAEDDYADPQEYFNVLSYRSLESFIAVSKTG", "assay": "FACS titration of AF647-labelled mAb on mouse CD4+CD25+Foxp3+ Tregs from Renca tumors; no unit beside the value, nM taken from the axis (binding site)"}}, "note": "Positions count from the first letter of the chain named. Names may count otherwise."}
{"binder": "B1", "values": [{"measurement": "Kd", "setting": "[1]", "result": 0.0213, "unit": "nM"}, {"measurement": "binding result", "setting": "Cyno TIGIT-His [2]", "result": "binds"}, {"measurement": "Kd", "setting": "human TIGIT on cells [3]", "result": 0.29, "unit": "nM"}, {"measurement": "gMFI of bound PVR-m2aFc at 266 pM mAb", "setting": "human TIGIT on cells [4]", "result": 509}, {"measurement": "gMFI of bound PVR-m2aFc at 1.3 nM mAb", "setting": "human TIGIT on cells [4]", "result": 262}, {"measurement": "gMFI of bound PVR-m2aFc at 6.7 nM mAb", "setting": "human TIGIT on cells [4]", "result": 209}]}
{"binder": "B2", "values": [{"measurement": "Kd", "setting": "[5]", "result": 10, "unit": "nM"}]}
{"binder": "B3", "values": [{"measurement": "Kd", "setting": "[1]", "result": 0.0231, "unit": "nM"}, {"measurement": "Kd", "setting": "Cyno TIGIT-His [6]", "result": 0.00155, "unit": "nM"}, {"measurement": "Kd", "setting": "cyno TIGIT on cells [7]", "result": 17.2, "unit": "nM"}, {"measurement": "Kd", "setting": "human TIGIT on cells [3]", "result": 10.2, "unit": "nM"}]}
{"binder": "B4", "values": [{"measurement": "Kd", "setting": "[8]", "result": 0.0023, "unit": "nM"}, {"measurement": "Kd", "setting": "cyno TIGIT on cells [9]", "result": 0.3, "unit": "nM"}, {"measurement": "Kd", "setting": "cyno TIGIT on cells [10]", "result": 0.98, "unit": "nM"}, {"measurement": "Kd", "setting": "human TIGIT on cells [11]", "result": 0.35, "unit": "nM"}, {"measurement": "Kd", "setting": "Mouse TIGIT-His", "result": 0.663, "unit": "nM"}, {"measurement": "Kd", "setting": "human TIGIT on cells [12]", "result": 0.11, "unit": "nM"}, {"measurement": "Kd", "setting": "human TIGIT on cells [13]", "result": 0.13, "unit": "nM"}, {"measurement": "IC50", "setting": "human TIGIT on cells [14]", "result": 0.18, "unit": "nM"}, {"measurement": "binding result", "setting": "Cyno TIGIT-His [15]", "result": "binds"}, {"measurement": "Kd", "setting": "[16]", "result": 0.000553, "unit": "nM"}, {"measurement": "Kd", "setting": "human TIGIT on cells [17]", "result": 0.09, "unit": "nM"}, {"measurement": "Kd", "setting": "cyno TIGIT on cells [18]", "result": 0.43, "unit": "nM"}, {"measurement": "IC50", "setting": "human TIGIT on cells [19]", "result": 0.36, "unit": "nM"}, {"measurement": "Kd", "setting": "[20]", "result": 0.000665, "unit": "nM"}]}
{"binder": "B5", "values": [{"measurement": "Kd", "setting": "mouse TIGIT on cells", "result": 0.4, "unit": "nM"}]}
{"binder": "B6", "values": [{"measurement": "Kd", "setting": "mouse TIGIT on cells", "result": 0.68, "unit": "nM"}]}
